Experimental findings from article PMC11286877 are described below.

The target of this assay is OLFM4 recombinant protein (SPR) (UniProt Q3UZZ4). As to the kind of experiment: SPR.
UniProt Q3UZZ4, sequence (Q3UZZ4 19-505): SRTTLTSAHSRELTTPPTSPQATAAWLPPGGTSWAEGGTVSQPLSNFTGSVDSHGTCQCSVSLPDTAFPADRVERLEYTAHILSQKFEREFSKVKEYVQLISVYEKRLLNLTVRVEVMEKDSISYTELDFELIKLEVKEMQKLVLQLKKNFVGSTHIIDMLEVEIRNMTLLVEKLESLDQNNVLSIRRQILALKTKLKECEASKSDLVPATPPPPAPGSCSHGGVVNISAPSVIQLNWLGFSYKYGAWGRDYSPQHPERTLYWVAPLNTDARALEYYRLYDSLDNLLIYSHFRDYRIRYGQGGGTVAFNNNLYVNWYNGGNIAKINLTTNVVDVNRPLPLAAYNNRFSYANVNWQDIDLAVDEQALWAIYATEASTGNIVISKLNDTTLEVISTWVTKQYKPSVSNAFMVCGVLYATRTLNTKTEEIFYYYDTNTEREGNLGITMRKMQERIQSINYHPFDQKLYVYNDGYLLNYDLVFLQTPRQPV

In general, Kd refers to the concentration at which binding is half-saturated. With “MTDH protein, extracellular domain (SPR) (from UniProt Q80WJ7 1-48) (domain or fragment)”, the Kd was 0.0219 nM.
